T1: cIL2Rg-Fc (lot#P210115SV5) (cynomolgus, UniProt A0A2K5VGJ6 23-262)
T1 construct: Named only by lot number; also called cynomolgus IL2Rg-Fc; not shown: Fc of the fusion protein
T1 sequence: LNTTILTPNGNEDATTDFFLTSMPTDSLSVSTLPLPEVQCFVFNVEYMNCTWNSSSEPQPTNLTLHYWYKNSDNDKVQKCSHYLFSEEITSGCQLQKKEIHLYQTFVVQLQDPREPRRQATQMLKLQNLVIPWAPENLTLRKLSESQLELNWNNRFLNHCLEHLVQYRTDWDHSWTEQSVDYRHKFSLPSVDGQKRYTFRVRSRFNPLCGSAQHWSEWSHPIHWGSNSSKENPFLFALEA

T2: hIL2Rg-Fc (SinoBiological cat#10555) (human, UniProt P31785 23-254, limits assumed)
T2 construct: Bought Fc fusion (SinoBiological cat#10555); P31785 is printed for hCD132 in the background; also called human IL2Rg-Fc; not shown: Fc of the bought fusion protein
T2 sequence (looked up): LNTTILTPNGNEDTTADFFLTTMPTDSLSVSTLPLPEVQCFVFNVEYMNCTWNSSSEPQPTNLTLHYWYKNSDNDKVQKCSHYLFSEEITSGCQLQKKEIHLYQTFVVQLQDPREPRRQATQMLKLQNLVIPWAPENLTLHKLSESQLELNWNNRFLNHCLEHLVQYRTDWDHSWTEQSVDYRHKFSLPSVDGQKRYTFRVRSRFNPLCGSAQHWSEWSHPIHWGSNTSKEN

B1: DR441(DR236-DR231) (bispecific antibody)
chain: QVQLQESGGGSVQAGGSLRLSCAASRFTYSSYCMGWFRQAPGKEREGVASIDSDGSTSYTDSVKGRFTISKDNAKNTLYLQMNSLKPEDTAMYYCALDLMSTVVPGFCGFLLSAGMDYWGKGTQVTVSSGGGSQVQLQESGGGSVQAGGSLRLSCTASGFTFDDREMNWYRQAPGNECELVSTISSDGSTYYADSVKGRFTISQDNAKNTVYLQMDSVKPEDTAVYYCAADFMIAIQAPGAGCWGQGTQVTVSSASHHHHHH
notes: Anti-hIL10Ra/hIL2Rg dual VHH with ASH6 handle; also called F1
B2: DR392(DR229-DR236) (bispecific antibody)
chain: QVQLQESGGGLVQPGGSLRLSCTASGFSFSSYPMTWARQAPGKGLEWVSTIASDGGSTAYAASVEGRFTISRDNAKSTLYLQLNSLKTEDTAMYYCTKGYGDGTPAPGQGTQVTVSSGGGSQVQLQESGGGSVQAGGSLRLSCAASRFTYSSYCMGWFRQAPGKEREGVASIDSDGSTSYTDSVKGRFTISKDNAKNTLYLQMNSLKPEDTAMYYCALDLMSTVVPGFCGFLLSAGMDYWGKGTQVTVSSASHHHHHH
notes: Anti-hIL10Ra/hIL2Rg dual VHH with ASH6 handle; also called A7
B3: DR395(DR229-DR239) (bispecific antibody)
chain: QVQLQESGGGLVQPGGSLRLSCTASGFSFSSYPMTWARQAPGKGLEWVSTIASDGGSTAYAASVEGRFTISRDNAKSTLYLQLNSLKTEDTAMYYCTKGYGDGTPAPGQGTQVTVSSGGGSQVQLQESGGGSVQAGGSLRLSCTVSGYTYSSNCMGWFRQAPGKEREGVATIYTGGGNTYYADSVKGRFTISQDNAKNTVYLQMNNLKPEDTAMYYCAAEPLSRVYGGSCPTPTFDYWGQGTQVTVSSASHHHHHH
notes: Anti-hIL10Ra/hIL2Rg dual VHH with ASH6 handle; also called A2
B4: DR468(DR240-DR234) (bispecific antibody)
chain: QVQLQESGGGSVQAGGSLRLSCGASGYTYSSYCMGWFRQVPGKEREGVAVIDSDGSTSYADSVKGRFTISKDNGKNTLYLQMNSLKPEDTAMYYCAADLGHYRPPCGVLYLGMDYWGKGTQVTVSSGGGSQVQLQESGGGSVQAGGSLRLSCVASGYTFSSYCMGWFRQAPGKEREGVAALGGGSTYYADSVKGRFTISQDNAKNTLYLQMNSLKPEDTAMYYCAAAWVACLEFGGSWYDLARYKHWGQGTQVTVSSASHHHHHH
notes: Anti-hIL10Ra/hIL2Rg dual VHH with ASH6 handle; also called G8
B5: DR438(DR235-DR234) (bispecific antibody)
chain: QVQLQESGGGSVQAGGSLRLSCAASRYLYSIDYMAWFRQSPGKEREPVAVIYTASGATFYPDSVKGRFTISQDNAKMTVYLQMNSLKSEDTAMYYCAAVRKTDSYLFDAQSFTYWGQGTQVTVSSGGGSQVQLQESGGGSVQAGGSLRLSCVASGYTFSSYCMGWFRQAPGKEREGVAALGGGSTYYADSVKGRFTISQDNAKNTLYLQMNSLKPEDTAMYYCAAAWVACLEFGGSWYDLARYKHWGQGTQVTVSSASHHHHHH
notes: Anti-hIL10Ra/hIL2Rg dual VHH with ASH6 handle; also called D12
B6: DR444(DR236-DR234) (bispecific antibody)
chain: QVQLQESGGGSVQAGGSLRLSCAASRFTYSSYCMGWFRQAPGKEREGVASIDSDGSTSYTDSVKGRFTISKDNAKNTLYLQMNSLKPEDTAMYYCALDLMSTVVPGFCGFLLSAGMDYWGKGTQVTVSSGGGSQVQLQESGGGSVQAGGSLRLSCVASGYTFSSYCMGWFRQAPGKEREGVAALGGGSTYYADSVKGRFTISQDNAKNTLYLQMNSLKPEDTAMYYCAAAWVACLEFGGSWYDLARYKHWGQGTQVTVSSASHHHHHH
notes: Anti-hIL10Ra/hIL2Rg dual VHH with ASH6 handle; also called E8
B7: DR466(DR240-DR232) (bispecific antibody)
chain: QVQLQESGGGSVQAGGSLRLSCGASGYTYSSYCMGWFRQVPGKEREGVAVIDSDGSTSYADSVKGRFTISKDNGKNTLYLQMNSLKPEDTAMYYCAADLGHYRPPCGVLYLGMDYWGKGTQVTVSSGGGSQVQLQESGGGSVQAGGSLRLSCVASGYTSCMGWFRQAPGKEREAVATIYTRGRSIYYADSVKGRFTISQDNAKNTLYLQMNSLKPEDIAMYSCAAGGYSWSAGCEFNYWGQGTQVTVSSASHHHHHH
notes: Anti-hIL10Ra/hIL2Rg dual VHH with ASH6 handle; also called H7
B8: DR465(DR240-DR231) (bispecific antibody)
chain: QVQLQESGGGSVQAGGSLRLSCGASGYTYSSYCMGWFRQVPGKEREGVAVIDSDGSTSYADSVKGRFTISKDNGKNTLYLQMNSLKPEDTAMYYCAADLGHYRPPCGVLYLGMDYWGKGTQVTVSSGGGSQVQLQESGGGSVQAGGSLRLSCTASGFTFDDREMNWYRQAPGNECELVSTISSDGSTYYADSVKGRFTISQDNAKNTVYLQMDSVKPEDTAVYYCAADFMIAIQAPGAGCWGQGTQVTVSSASHHHHHH
notes: Anti-hIL10Ra/hIL2Rg dual VHH with ASH6 handle; also called H1
B9: DR474(DR241-DR234) (bispecific antibody)
chain: QVQLQESGGGSVQAGGSLRLSCAASGYSNCSYDMTWYRQAPGKEREFVSAIHSDGSTRYADSVKGRFFISQDNAKNTVYLQMNSLKPEDTAMYYCKTDPLHCRAHGGSWYSVRANYWGQGTQVTVSSGGGSQVQLQESGGGSVQAGGSLRLSCVASGYTFSSYCMGWFRQAPGKEREGVAALGGGSTYYADSVKGRFTISQDNAKNTLYLQMNSLKPEDTAMYYCAAAWVACLEFGGSWYDLARYKHWGQGTQVTVSSASHHHHHH
notes: Anti-hIL10Ra/hIL2Rg dual VHH with ASH6 handle; also called H9
B10: DR449(DR237-DR233) (bispecific antibody)
chain: QVQLQESGGGSVQAGGSLRLSCAASGYTYSMYCMGWFRQAPGKEREGVAQINSDGSTSYADSVKGRFTISKDNAKNTLYLQMNSLKPEDTAMYYCAADSRVYGGSWYERLCGPYTYEYNYWGQGTQVTVSSGGGSQVQLQESGGGSVQAGGSLRLSCTASGFTFDDSDMGWYRQAPGNECELVSTISSDGSTYYADSVKGRFTISQDNAKNTVYLQMNSLKPEDTAVYYCAAEPRGYYSNYGGRRECNYWGQGTQVTVSSASHHHHHH
notes: Anti-hIL10Ra/hIL2Rg dual VHH with ASH6 handle; also called F3
B11: DR437(DR235-DR233) (bispecific antibody)
chain: QVQLQESGGGSVQAGGSLRLSCAASRYLYSIDYMAWFRQSPGKEREPVAVIYTASGATFYPDSVKGRFTISQDNAKMTVYLQMNSLKSEDTAMYYCAAVRKTDSYLFDAQSFTYWGQGTQVTVSSGGGSQVQLQESGGGSVQAGGSLRLSCTASGFTFDDSDMGWYRQAPGNECELVSTISSDGSTYYADSVKGRFTISQDNAKNTVYLQMNSLKPEDTAVYYCAAEPRGYYSNYGGRRECNYWGQGTQVTVSSASHHHHHH
notes: Anti-hIL10Ra/hIL2Rg dual VHH with ASH6 handle; also called D6

target: T1, cIL2Rg-Fc (lot#P210115SV5); assay: SPR (Biacore T200); ratio experimental/calculated Rmax

Surface Activity [%]	Binder
1	B1
1	B2
2	B3
1	B4
1	B5
2	B6
9	B7
1	B8
2	B9
1	B10
1	B11

target: T2, hIL2Rg-Fc (SinoBiological cat#10555); assay: as above

Surface Activity [%]	Binder
4	B1
4	B2
5	B3
6	B4
5	B5
5	B6
6	B7
4	B8
6	B9
2	B10
3	B11

target: T1, cIL2Rg-Fc (lot#P210115SV5); assay: SPR (Biacore T200), Fc-fused ligand captured on chip, dual VHH as analyte, 1:1 Langmuir fit
Description: (§1) All experiments were conducted in 10 mM Hepes, 150 mM NaCl, 0.05% (v/v) Polysorbate 20 (PS20) and 3 mM EDTA (HBS-EP+ buffer) on a Biacore T200 instrument equipped with Protein A or CAP biotin chips (Cytiva). For experiments on Protein A chips, Fc-fused ligands were flowed at 5 μl/min for variable time ranging from 18 to 300 seconds, reaching the capture loads listed in the tables below. Following ligand capture, injections of a 2-fold dilution series of analyte typically comprising at least five concentrations between 1 μM and 1 nM were performed in either high performance or single cycle kinetics mode. Surface regeneration was achieved by flowing 10 mM glycine-HCl, pH 1.5 (60 seconds, […]). Buffer-subtracted sensograms were processed with Biacore T200 Evaluation Software and globally fit with a 1:1 Langmuir binding model (bulk shift set to zero) to extract kinetics and affinity constants (kₐ, kd, KD). RMAX<100 RU indicates surface density compatible with kinetics analysis. Experiments on CAP chips were performed as described above with an additional capture step of Biotin CAPture reagent (10 seconds, 40 uL/min) performed prior to capture of biotinylated ligands. Calculated Rmax were generated using the equation Rmax=Load (RU) x valency of ligand x (Molecular weight of analyte/Molecular weight of ligand. Surface activity was defined as the ratio experimental/calculated Rmax. The results of these experiments are provided in below for sample information and experimental results.

Kd [nM]	koff [s⁻¹]	kon [M⁻¹ s⁻¹]	Binder
8.3	0.0028	340000	B1
2.4	0.004	1.6e+06	B2
3.2	0.0026	800000	B3
4.3	0.001	240000	B4
2.2	0.0012	560000	B5
5.3	0.00077	150000	B6
49.9	0.0037	75000	B7
3.2	0.0022	700000	B8
2.9	0.00093	330000	B9
22.6	0.0048	210000	B10
7.8	0.0022	290000	B11

target: T2, hIL2Rg-Fc (SinoBiological cat#10555); assay: as above
Description: as §1

Kd [nM]	koff [s⁻¹]	kon [M⁻¹ s⁻¹]	Binder
11.1	0.0053	470000	B1
3.6	0.0062	1.7e+06	B2
3.9	0.0078	2e+06	B3
8.5	0.0015	170000	B4
2.7	0.001	390000	B5
6.9	0.0026	380000	B6
20.8	0.026	1.2e+06	B7
14.5	0.0037	250000	B8
3.2	0.00099	310000	B9
30.4	0.0065	220000	B10
27.5	0.0051	190000	B11

— US20250163162A1 (SYNTHEKINE, published 2025)
